Key:
Assay in all cases: cell-based or functional assay
[1] = target: HIV-1 envelope of pseudovirus T257-31 (HIV-1)
[2] = target: HIV-1 envelope spike of pseudovirus SC422661.8 (HIV-1)
[3] = target: HIV-1 Env of pseudovirus 6240_08_TA5_4622 (HIV-1)
[4] = target: HIV-1 Env of pseudovirus 6535.3 (HIV-1)
[5] = target: HIV-1 Env of pseudovirus QH0692.42 (HIV-1)
[6] = target: HIV-1 envelope of pseudovirus QH0692.42 (HIV-1)
[7] = target: HIV-1 envelope of pseudovirus Ce704809221_1B3 (HIV-1)
[8] = target: HIV-1 envelope of pseudovirus Q842.d12 (HIV-1)
[9] = target: HIV-1 Env of pseudovirus 6540.v4.c1 (HIV-1)
[10] = target: HIV-1 envelope of pseudovirus 191084 B7-19 (HIV-1)
[11] = target: HIV-1 Env of pseudovirus CNE58 (HIV-1)
[12] = target: HIV-1 envelope of pseudovirus ZM197M.PB7 (HIV-1)
[13] = target: HIV-1 envelope of pseudovirus X1193_c1 (HIV-1)
[14] = target: HIV-1 Env of pseudovirus BJOX028000.10.3 (HIV-1)
[15] = target: HIV-1 Env of pseudovirus 3365.v2.c2 (HIV-1)
[16] = target: HIV-1 Env of pseudovirus REJO4541.67 (HIV-1)
[17] = target: HIV-1 envelope of pseudovirus C1080.c03 (HIV-1)
[18] = target: HIV-1 envelope of pseudovirus C2101.c01 (HIV-1)
[19] = target: HIV-1 envelope of pseudovirus R2184.c04 (HIV-1)
[20] = target: HIV-1 envelope of pseudovirus 1054_07_TC4_1499 (HIV-1)
[21] = target: HIV-1 envelope of pseudovirus 6540.v4.c1 (HIV-1)
[22] = target: HIV-1 envelope of pseudovirus BJOX028000.10.3 (HIV-1)
[23] = target: HIV-1 envelope of pseudovirus 3016.v5.c45 (HIV-1)
[24] = target: HIV-1 envelope of pseudovirus Q451.e2 (HIV-1)
[25] = target: HIV-1 envelope of pseudovirus BJOX025000.01.1 (HIV-1)
[26] = target: HIV-1 Env of pseudovirus CAAN5342.A2 (HIV-1)
[27] = target: HIV-1 Env of pseudovirus X2131_C1_85 (HIV-1)
[28] = target: HIV-1 Env of pseudovirus 6480.v4.c25 (HIV-1)
[29] = target: HIV-1 Env of pseudovirus 928-28 (HIV-1)
[30] = target: HIV-1 envelope of pseudovirus C3347.c11 (HIV-1)
[31] = target: HIV-1 envelope of pseudovirus 191821_E6_1 (HIV-1)
[32] = target: HIV-1 envelope of pseudovirus AC10.0.29 (HIV-1)
[33] = target: HIV-1 envelope of pseudovirus C4118.c09 (HIV-1)
[34] = target: HIV-1 envelope of pseudovirus ZM109F.PB4 (HIV-1)
[35] = target: HIV-1 envelope of pseudovirus RHPA4259.7 (HIV-1)
[36] = target: HIV-1 Env of pseudovirus Du172.17 (HIV-1)
[37] = target: HIV-1 envelope of pseudovirus Q259.d2.17 (HIV-1)
[38] = target: HIV-1 envelope of pseudovirus 1394C9G1(Rev-) (HIV-1)
[39] = target: HIV-1 Env of pseudovirus CNE20 (HIV-1)
[40] = target: HIV-1 Env of pseudovirus 6041.v3.c23 (HIV-1)
[41] = target: HIV-1 Env of pseudovirus C4118.c09 (HIV-1)
[42] = target: HIV-1 envelope spike of pseudovirus PVO.4 (HIV-1)
[43] = target: HIV-1 envelope of pseudovirus Ce1086_B2 (HIV-1)
[44] = target: HIV-1 envelope of pseudovirus Ce1172_H1 (HIV-1)
[45] = target: HIV-1 Env of pseudovirus 246F C1G (HIV-1)
[46] = target: HIV-1 envelope of pseudovirus 6480.v4.c25 (HIV-1)
[47] = target: HIV-1 envelope of pseudovirus REJO4541.67 (HIV-1)
[48] = target: HIV-1 envelope of pseudovirus Du156.12 (HIV-1)
[49] = target: HIV-1 Env of pseudovirus 6545.v4.c1 (HIV-1)
[50] = target: HIV-1 Env of pseudovirus ZM249M.PL1 (HIV-1)

Chain of 10-1074 (antibody) (VH): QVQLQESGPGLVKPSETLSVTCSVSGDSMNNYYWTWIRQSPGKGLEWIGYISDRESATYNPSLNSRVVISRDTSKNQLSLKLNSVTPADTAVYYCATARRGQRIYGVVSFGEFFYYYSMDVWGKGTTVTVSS
Chain of 10-1074 (antibody) (V domain): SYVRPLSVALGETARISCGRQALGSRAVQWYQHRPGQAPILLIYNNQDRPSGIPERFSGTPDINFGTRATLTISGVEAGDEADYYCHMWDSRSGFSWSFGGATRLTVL

10-1074 (antibody)
IC50 (TZM-bl neutralization) [1]: > 50 µg/mL
IC50 (TZM-bl neutralization assay) [2]: 0.145 µg/mL
IC80 (TZM-bl neutralization assay) [2]: 0.392 µg/mL
IC80 (TZM-bl neutralization) [3]: 0.306 µg/mL
IC80 (TZM-bl neutralization) [4]: 0.026 µg/mL
IC80 (TZM-bl neutralization) [5]: 0.929 µg/mL
IC50 (TZM-bl neutralization) [6]: 0.191 µg/mL
IC50 (TZM-bl neutralization) [7]: 0.139 µg/mL
IC50 (TZM-bl neutralization) [8]: > 50 µg/mL
IC80 (TZM-bl neutralization) [9]: > 50 µg/mL
IC50 (TZM-bl neutralization) [10]: 0.032 µg/mL
IC80 (TZM-bl neutralization) [11]: 0.968 µg/mL
IC50 (TZM-bl neutralization) [12]: > 50 µg/mL
IC50 (TZM-bl neutralization) [13]: 0.083 µg/mL
IC80 (TZM-bl neutralization) [14]: > 50 µg/mL
IC80 (TZM-bl neutralization) [15]: 0.45 µg/mL
IC80 (TZM-bl neutralization) [16]: > 50 µg/mL
IC50 (TZM-bl neutralization) [17]: > 50 µg/mL
IC50 (TZM-bl neutralization) [18]: > 50 µg/mL
IC50 (TZM-bl neutralization) [19]: > 50 µg/mL
IC50 (TZM-bl neutralization) [20]: 0.129 µg/mL
IC50 (TZM-bl neutralization) [21]: > 50 µg/mL
IC50 (TZM-bl neutralization) [22]: > 50 µg/mL
IC50 (TZM-bl neutralization) [23]: > 50 µg/mL
IC50 (TZM-bl neutralization) [24]: > 50 µg/mL
IC50 (TZM-bl neutralization) [25]: > 50 µg/mL
IC80 (TZM-bl neutralization) [26]: 0.036 µg/mL
IC80 (TZM-bl neutralization) [27]: 0.064 µg/mL
IC80 (TZM-bl neutralization) [28]: 0.041 µg/mL
IC80 (TZM-bl neutralization) [29]: 4.7 µg/mL
IC50 (TZM-bl neutralization) [30]: > 50 µg/mL
IC50 (TZM-bl neutralization) [31]: > 50 µg/mL
IC50 (TZM-bl neutralization) [32]: 0.022 µg/mL
IC50 (TZM-bl neutralization) [33]: > 50 µg/mL
IC50 (TZM-bl neutralization) [34]: > 50 µg/mL
IC50 (TZM-bl neutralization) [35]: 0.021 µg/mL
IC80 (TZM-bl neutralization) [36]: 0.43 µg/mL
IC50 (TZM-bl neutralization) [37]: > 50 µg/mL
IC50 (TZM-bl neutralization) [38]: 0.05 µg/mL
IC80 (TZM-bl neutralization) [39]: 0.005 µg/mL
IC80 (TZM-bl neutralization) [40]: > 50 µg/mL
IC80 (TZM-bl neutralization) [41]: > 50 µg/mL
IC50 (TZM-bl neutralization assay) [42]: 0.178 µg/mL
IC80 (TZM-bl neutralization assay) [42]: 0.766 µg/mL
IC50 (TZM-bl neutralization) [43]: > 50 µg/mL
IC50 (TZM-bl neutralization) [44]: 0.047 µg/mL
IC80 (TZM-bl neutralization) [45]: 0.111 µg/mL
IC50 (TZM-bl neutralization) [46]: 0.009 µg/mL
IC50 (TZM-bl neutralization) [47]: > 50 µg/mL
IC50 (TZM-bl neutralization) [48]: 0.015 µg/mL
IC80 (TZM-bl neutralization) [49]: > 50 µg/mL
IC80 (TZM-bl neutralization) [50]: > 50 µg/mL

PGT121 (antibody)
IC50 (TZM-bl neutralization) [1]: > 50 µg/mL
IC50 (TZM-bl neutralization assay) [2]: 0.263 µg/mL
IC80 (TZM-bl neutralization assay) [2]: 0.714 µg/mL
IC80 (TZM-bl neutralization) [3]: 0.584 µg/mL
IC80 (TZM-bl neutralization) [4]: 0.021 µg/mL
IC80 (TZM-bl neutralization) [5]: 8.54 µg/mL
IC50 (TZM-bl neutralization) [6]: 1.04 µg/mL
IC50 (TZM-bl neutralization) [7]: 0.098 µg/mL
IC50 (TZM-bl neutralization) [8]: 0.023 µg/mL
IC80 (TZM-bl neutralization) [9]: > 50 µg/mL
IC50 (TZM-bl neutralization) [10]: 0.042 µg/mL
IC80 (TZM-bl neutralization) [11]: > 50 µg/mL
IC50 (TZM-bl neutralization) [12]: > 50 µg/mL
IC50 (TZM-bl neutralization) [13]: 0.045 µg/mL
IC80 (TZM-bl neutralization) [14]: > 50 µg/mL
IC80 (TZM-bl neutralization) [15]: 7.35 µg/mL
IC80 (TZM-bl neutralization) [16]: > 50 µg/mL
IC50 (TZM-bl neutralization) [17]: > 50 µg/mL
IC50 (TZM-bl neutralization) [18]: > 50 µg/mL
IC50 (TZM-bl neutralization) [19]: > 50 µg/mL
IC50 (TZM-bl neutralization) [20]: 0.115 µg/mL
IC50 (TZM-bl neutralization) [21]: > 50 µg/mL
IC50 (TZM-bl neutralization) [22]: > 50 µg/mL
IC50 (TZM-bl neutralization) [23]: > 50 µg/mL
IC50 (TZM-bl neutralization) [24]: > 50 µg/mL
IC50 (TZM-bl neutralization) [25]: > 50 µg/mL
IC80 (TZM-bl neutralization) [26]: 0.051 µg/mL
IC80 (TZM-bl neutralization) [27]: 0.058 µg/mL
IC80 (TZM-bl neutralization) [28]: 0.079 µg/mL
IC80 (TZM-bl neutralization) [29]: > 50 µg/mL
IC50 (TZM-bl neutralization) [30]: > 50 µg/mL
IC50 (TZM-bl neutralization) [31]: > 50 µg/mL
IC50 (TZM-bl neutralization) [32]: 0.037 µg/mL
IC50 (TZM-bl neutralization) [33]: > 50 µg/mL
IC50 (TZM-bl neutralization) [34]: 7.89 µg/mL
IC50 (TZM-bl neutralization) [35]: 0.014 µg/mL
IC80 (TZM-bl neutralization) [36]: 0.89 µg/mL
IC50 (TZM-bl neutralization) [37]: 8.99 µg/mL
IC50 (TZM-bl neutralization) [38]: 0.486 µg/mL
IC80 (TZM-bl neutralization) [39]: 0.008 µg/mL
IC80 (TZM-bl neutralization) [40]: > 50 µg/mL
IC80 (TZM-bl neutralization) [41]: > 50 µg/mL
IC50 (TZM-bl neutralization assay) [42]: 0.147 µg/mL
IC80 (TZM-bl neutralization assay) [42]: 1.1 µg/mL
IC50 (TZM-bl neutralization) [43]: < 0.001 µg/mL
IC50 (TZM-bl neutralization) [44]: 0.023 µg/mL
IC80 (TZM-bl neutralization) [45]: 0.287 µg/mL
IC50 (TZM-bl neutralization) [46]: 0.017 µg/mL
IC50 (TZM-bl neutralization) [47]: 3.61 µg/mL
IC50 (TZM-bl neutralization) [48]: 0.007 µg/mL
IC80 (TZM-bl neutralization) [49]: > 50 µg/mL
IC80 (TZM-bl neutralization) [50]: > 50 µg/mL

Source: patent US12338277
